The record followed here is publication PMC11485400 (Alzheimer's & Dementia, 2024).

Where two headings read alike, the source gives them in different places.

As a reminder, the Kd is the constant that tells how readily two partners part at equilibrium.

B1: human recombinant PrP^C 23-230 (domain or fragment)
chain: not shown
B2: caveolin-1 (Cav-1) (natural protein)
chain: MSGGKYVDSEGHLYTVPIREQGNIYKPNNKAMADELSEKQVYDAHTKEIDLVNRDPKHLNDDVVKIDFEDVIAEPEGTHSFDGIWKASFTTFTVTKYWFYRLLSALFGIPMALIWGIYFAILSFLHIWAVVPCIKSFLIEIQCISRVYSIYVHTVCDPLFEAVGKIFSNVRINLQKEI

Holding throughout (test): SPR
(In general: In SPR one partner is held on a chip, and binding of the other changes the refractive index at the surface.)

The target in test [1] is T1, synthetic human Aβ1-40, oligomerised (human, UniProt P05067).
Test [2] deals with T2, synthetic human Aβ1-42, oligomerised (human, UniProt P05067).
The target of test [3] is B1.
In test [4] the target is T1, synthetic human Aβ1-40, oligomerised. This is another data set of the same source.
Test [5] deals with T2, synthetic human Aβ1-42, oligomerised. The source holds these as a separate data set.

Take B1: the values for the Kd in test [1] and in test [2] were 0.0288 µM and 0.0113 µM, respectively.

For B2, the figures for the Kd in test [3], in test [4] and in test [5] were 0.0141 µM, 0.0114 µM and 0.013 µM, respectively.
